Measurements from patent publication US20030186329.

How the values were obtained:
[1] = biological target: fusion of maltose binding protein, QRGRSA and the HY4 gene product of Arabidopsis thaliana (UniProt Q43125)
[2] = tested on: T1, peptide (I), native cleavage sequence from plasminogen
T1 sequence: KKSPGRVVGGSVAH

[3] = tested on: T2, peptide (II) of Table 1, LGGSGQRGRKALE
T2 sequence: LGGSGQRGRKALE

[4] = tested on: T3, peptide (III) of Table 1, LGGSGERARGALE
T3 sequence: LGGSGERARGALE

[5] = tested on: T4, peptide (IV) of Table 1, LGGSGHYGRSGLE
T4 sequence: LGGSGHYGRSGLE

[6] = tested on: T5, peptide (V) of Table 1, YGRS
T5 sequence: YGRS

[7] = tested on: T6, peptide (VI) of Table 1, RGRK
T6 sequence: RGRK

[8] = tested on: T7, peptide (VII) of Table 1, FRGRK
T7 sequence: FRGRK

[9] = tested on: T8, peptide GSGKS
T8 sequence: GSGKS

[10] = tested on: T9, peptide LGGRGRSANAILE
T9 sequence: LGGRGRSANAILE

[11] = tested on: T10, peptide LGGSGRKASLSLE
T10 sequence: LGGSGRKASLSLE

[12] = tested on: T11, peptide LGGSGRNAQVRLE
T11 sequence: LGGSGRNAQVRLE

[13] = tested on: T12, peptide LGGSGRSANAILE
T12 sequence: LGGSGRSANAILE

[14] = tested on: T13, peptide LGGSGRSATRDLE
T13 sequence: LGGSGRSATRDLE

[15] = tested on: T14, peptide LGGYGRSANAILE
T14 sequence: LGGYGRSANAILE

[16] = tested on: T15, peptide LGQRGRSANAILE
T15 sequence: LGQRGRSANAILE

[17] = tested on: T16, peptide SGKS
T16 sequence: SGKS

[18] = tested on: T17, peptide SGRSA
T17 sequence: SGRSA

[19] = tested on: T18, peptide SGRS
T18 sequence: SGRS

[20] = tested on: phage 33, displaying hexamer RSANAI
[21] = tested on: phage clone 34, displaying hexamer RNAQVR
[22] = tested on: phage clone 35, displaying hexamer RSATRD
[23] = tested on: phage clone 36, displaying hexamer RSAKVD
[24] = tested on: phage clone 37, displaying hexamer RKASLS
[25] = tested on: phage clone 38, displaying hexamer RRAVSN
[26] = tested on: phage clone 39, displaying hexamer RSAVVK
[27] = tested on: phage clone 40, displaying hexamer RSSSSH
[28] = tested on: T12, peptide LGGSGRSANAILE; experiment: kinetics of peptide hydrolysis by u-PA, HPLC, Eadie-Hofstee
[29] = tested on: T1, peptide (I), native cleavage sequence from plasminogen; experiment: kinetics of peptide hydrolysis by the enzyme, HPLC, Eadie-Hofstee
[30] = tested on: T2, peptide (II) of Table 1, LGGSGQRGRKALE; experiment: as above
[31] = tested on: T3, peptide (III) of Table 1, LGGSGERARGALE; experiment: as above
[32] = tested on: T4, peptide (IV) of Table 1, LGGSGHYGRSGLE; experiment: as above
[33] = tested on: T9, peptide LGGRGRSANAILE; experiment: as above
[34] = tested on: T10, peptide LGGSGRKASLSLE; experiment: as above
[35] = tested on: T11, peptide LGGSGRNAQVRLE; experiment: as above
[36] = tested on: T12, peptide LGGSGRSANAILE; experiment: as above
[37] = tested on: T13, peptide LGGSGRSATRDLE; experiment: as above
[38] = tested on: T14, peptide LGGYGRSANAILE; experiment: as above
[39] = tested on: T15, peptide LGQRGRSANAILE; experiment: as above
[40] = tested on: T5, peptide (V) of Table 1, YGRS; experiment: kinetics of peptide hydrolysis by the enzyme, HILIC HPLC, Eadie-Hofstee
[41] = tested on: T6, peptide (VI) of Table 1, RGRK; experiment: as above
[42] = tested on: T7, peptide (VII) of Table 1, FRGRK; experiment: as above
[43] = tested on: T8, peptide GSGKS; experiment: as above
[44] = tested on: T16, peptide SGKS; experiment: as above
[45] = tested on: T17, peptide SGRSA; experiment: as above
[46] = tested on: T18, peptide SGRS; experiment: as above

Sequence of fusion of maltose binding protein, QRGRSA and the HY4 gene product of Arabidopsis thaliana (Q43125 other isoform, or with tags, fused parts or gaps): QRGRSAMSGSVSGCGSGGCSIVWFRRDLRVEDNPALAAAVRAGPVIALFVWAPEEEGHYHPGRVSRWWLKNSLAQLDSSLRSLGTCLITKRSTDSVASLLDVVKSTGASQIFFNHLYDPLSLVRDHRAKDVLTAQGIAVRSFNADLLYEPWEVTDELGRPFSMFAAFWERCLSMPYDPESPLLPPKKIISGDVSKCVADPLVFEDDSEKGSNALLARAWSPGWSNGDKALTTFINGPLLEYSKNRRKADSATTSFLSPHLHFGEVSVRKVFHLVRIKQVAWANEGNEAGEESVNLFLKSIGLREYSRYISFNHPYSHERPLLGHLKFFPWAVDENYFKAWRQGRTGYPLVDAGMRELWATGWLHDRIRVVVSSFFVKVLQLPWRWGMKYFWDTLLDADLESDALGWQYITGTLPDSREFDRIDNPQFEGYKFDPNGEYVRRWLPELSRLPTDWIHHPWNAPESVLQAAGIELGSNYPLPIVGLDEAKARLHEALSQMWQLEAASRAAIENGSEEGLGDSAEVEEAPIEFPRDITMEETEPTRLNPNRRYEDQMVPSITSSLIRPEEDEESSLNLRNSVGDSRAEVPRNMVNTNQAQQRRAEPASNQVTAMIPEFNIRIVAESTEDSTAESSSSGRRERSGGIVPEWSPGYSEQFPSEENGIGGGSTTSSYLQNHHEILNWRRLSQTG

urokinase-type plasminogen activator (u-PA)
cleavage of fusion protein, SDS-PAGE [1]: whereas u-PA did not
kcat [2]: 0.003 s⁻¹
kcat/Km [2]: 0.88 M⁻¹ s⁻¹
kcat [3]: 0.02 s⁻¹
kcat/Km [3]: 9.2 M⁻¹ s⁻¹
kcat [4]: 0.004 s⁻¹
kcat/Km [4]: 4 M⁻¹ s⁻¹
kcat [5]: 0.059 s⁻¹
kcat/Km [5]: 15 M⁻¹ s⁻¹
kcat [6]: 2.6 s⁻¹
kcat/Km [6]: 230 M⁻¹ s⁻¹
kcat [7]: 0.76 s⁻¹
kcat/Km [7]: 16 M⁻¹ s⁻¹
kcat [8]: 0.14 s⁻¹
kcat/Km [8]: 16 M⁻¹ s⁻¹
kcat [9]: 0.82 s⁻¹
kcat/Km [9]: 193 M⁻¹ s⁻¹
kcat [10]: 0.08 s⁻¹
kcat/Km [10]: 67 M⁻¹ s⁻¹
kcat [11]: 1.14 s⁻¹
kcat/Km [11]: 1010 M⁻¹ s⁻¹
kcat [12]: 3.69 s⁻¹
kcat/Km [12]: 3200 M⁻¹ s⁻¹
fold improvement as substrate against control peptide (I) [13]: by factors of 840-5300
fold increase of kcat against control peptide (I) [13]: increased by a factor of more than 940
kcat [13]: 2.83 s⁻¹
kcat/Km [13]: 4700 M⁻¹ s⁻¹
fold improvement as substrate against control peptide (I) [14]: by factors of 840-5300
kcat [14]: 0.54 s⁻¹
kcat/Km [14]: 740 M⁻¹ s⁻¹
kcat [15]: 0.7 s⁻¹
kcat/Km [15]: 318 M⁻¹ s⁻¹
kcat [16]: 0.068 s⁻¹
kcat/Km [16]: 45 M⁻¹ s⁻¹
fold decrease of catalytic efficiency against peptide (VI) SGRS [17]: by a factor of 7 for u-PA
kcat [17]: 1.22 s⁻¹
kcat/Km [17]: 154 M⁻¹ s⁻¹
kcat [18]: 3.7 s⁻¹
kcat/Km [18]: 1200 M⁻¹ s⁻¹
kcat [19]: 2.3 s⁻¹
kcat/Km [19]: 1100 M⁻¹ s⁻¹
dot blot analysis under the most stringent conditions of digestion [20]: proved to be particularly labile u-PA substrates
dot blot analysis under the most stringent conditions of digestion [21]: proved to be particularly labile u-PA substrates
dot blot analysis under the most stringent conditions of digestion [22]: proved to be particularly labile u-PA substrates
dot blot analysis under the most stringent conditions of digestion [23]: proved to be particularly labile u-PA substrates
dot blot analysis under the most stringent conditions of digestion [24]: proved to be particularly labile u-PA substrates
dot blot analysis under the most stringent conditions of digestion [25]: proved to be particularly labile u-PA substrates
dot blot analysis under the most stringent conditions of digestion [26]: proved to be particularly labile u-PA substrates
dot blot analysis under the most stringent conditions of digestion [27]: proved to be particularly labile u-PA substrates
fold reduction of Km against control peptide (I) [28]: reduced by a factor of 5.6
Km [29]: 3400 µM
Km [30]: 2180 µM
Km [31]: 970 µM
Km [32]: 3800 µM
Km [33]: 1200 µM
Km [34]: 1130 µM
Km [35]: 1160 µM
Km [36]: 603 µM
Km [37]: 733 µM
Km [38]: 2200 µM
Km [39]: 1500 µM
Km [40]: 11400 µM
Km [41]: 46500 µM
Km [42]: 8600 µM
Km [43]: 4250 µM
Km [44]: 7900 µM
Km [45]: 3100 µM
Km [46]: 2100 µM
